Data set [1] concerns the target T1, IL-8 (CXCL8), captured by monoclonal antibody (Homo sapiens, UniProt P10145 P10145:28-99). The data set is described as follows: single-molecule TIRF; antibody-mediated capture; 25% horse serum, 21 C; kon 0.99e6, koff 2.50. The following applies: tags: Bio-Rad BR-1098; captured by biotinylated anti-IL-8 EPR19358-108; label: 3'-Cy5. As for the experimental part:
(§1) SiMREPS assays of recombinant antigens-All sample handling was performed in GeneMate low-adhesion 1.7-mL microcentrifuge tubes, and dilutions were performed in 25% horse serum, 0.75×PBS, pH 7.4, and 7.5 mg/mL BSA. The slide surface was washed with 100 μL of T50 buffer (10 mM Tris-HCl, 50 mM NaCl, 1 mm EDTA, pH 8.0) for 10 minutes followed by the addition of 40 μL 1 mg/mL streptavidin. After 10 minutes, excess streptavidin was removed, and the sample chamber washed three times with 100 μL of 1×PBS. Next, the coverslip was coated with the biotinylated capture antibody by adding 40 μL of a solution containing 10 nM of biotinylated capture antibody in 1×PBS buffer and incubating for 30 minutes. […]
(§2) To systematically assess the effect of aptamer size on the kinetics of binding to the small (8.4 kDa) protein IL-8, two different antigen capture strategies were used: direct capture, in which C-terminally biotin labelled IL-8 was immobilized directly on the surface by the biotin-streptavidin interaction; and antibody mediated capture, in which non-biotinylated IL-8 was captured on the surface by a surface-immobilized biotinylated monoclonal antibody (FIG. 7A). […] To gain more quantitative insight, association and dissociation rate constants were calculated from the dwell time distributions in the aptamer-unbound and -bound states, respectively, and are shown in Table 2.

For data set [2], the target named is T2, IL-8 (CXCL8), C-terminally biotinylated, directly surface-captured (Homo sapiens, UniProt P10145 P10145:28-99). The data set is described as follows: single-molecule TIRF; direct IL-8 capture; 25% horse serum, 21 C; kon 2.08e6, koff 0.55. The settings on record: tags: C-terminal biotin; Chemotactics B-CXCL8-2 ug; immobilized on streptavidin; label: 3'-Cy5.
T2 sequence (P10145 28-99, one chain of several): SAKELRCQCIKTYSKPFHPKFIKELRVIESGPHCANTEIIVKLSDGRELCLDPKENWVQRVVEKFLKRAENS
Excerpt: as §2

For data set [3], the target named is T1, IL-8 (CXCL8), captured by monoclonal …. The data set is described as follows: single-molecule TIRF; antibody-mediated capture; 25% horse serum, 21 C; kon 2.29e6, koff 2.32. The settings on record: tags: Bio-Rad BR-1098; captured by biotinylated anti-IL-8 EPR19358-108; label: 3'-Cy5. As for the experimental part: as §1, §2
In data set [4] the target is T2, IL-8 (CXCL8), C-terminally …. The data set is described as follows: single-molecule TIRF; direct IL-8 capture; 25% horse serum, 21 C; kon 3.21e6, koff 0.54. The following applies: tags: C-terminal biotin; Chemotactics B-CXCL8-2 ug; immobilized on streptavidin; label: 3'-Cy5.
Excerpt: as §2

In data set [5] the target is T3, VEGF165 (Homo sapiens, UniProt P15692-4 P15692-4:27-191). The data set can be described thus: single-molecule TIRF. The following applies: tags: Abcam ab9571; captured by biotinylated anti-VEGF165 IgG (Bio-Rad); chain copies: 2; label: 3'-Cy5.
T3 sequence (P15692 other isoform, or with tags, fused parts or gaps): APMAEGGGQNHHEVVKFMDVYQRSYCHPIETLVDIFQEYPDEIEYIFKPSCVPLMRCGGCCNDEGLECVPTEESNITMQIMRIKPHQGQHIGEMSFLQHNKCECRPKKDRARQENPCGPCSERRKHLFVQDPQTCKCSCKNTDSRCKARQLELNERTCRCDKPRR
The target of data set [6] is T3, VEGF165. The data set can be described thus: single-molecule TIRF; same buffer as t22 G->A. The settings on record: tags: Abcam ab9571; captured by biotinylated anti-VEGF165 IgG (Bio-Rad); chain copies: 2; label: 3'-Cy5.
Data set [7] deals with T1, IL-8 (CXCL8), captured by monoclonal …. The data set is described as follows: single-molecule TIRF; antibody-mediated capture; 25% horse serum, 21 C; kon 4.48e6, koff 1.17. The following applies: tags: Bio-Rad BR-1098; captured by biotinylated anti-IL-8 EPR19358-108; label: 5'-Cy5. As for the experimental part: as §1, §2
Data set [8] has as its target T2, IL-8 (CXCL8), C-terminally …. The data set can be described thus: single-molecule TIRF; direct IL-8 capture; 25% horse serum, 21 C; kon 5.68e6, koff 0.50. The settings on record: tags: C-terminal biotin; Chemotactics B-CXCL8-2 ug; immobilized on streptavidin; label: 5'-Cy5.
Excerpt: as §2

T1 sequence (P10145 28-99, one chain of several): as the sequence (P10145 28-99, one chain of several) above

B1: 8A-44 (SEQ ID NO 1) (ssRNA)
RNA: GGGGGCUUAUCAUUCCAUUUAGUGUUAUGAUAACCUCUCCCAUA
modifications: 2'-F at C and U (printed i2FC/i2FU up to position 36; text states all pyrimidines)
Regarding B1, the dissociation constant Kd (usually the free concentration of one partner at which half of the binding sites on the other are occupied at equilibrium, for simple one-to-one binding) amounted to 2520 nM in data set [1] and 264 nM in data set [2].
As for GGGGGCUUAUCAUUCCAUUUAGUGUUAUGAUAACC (ssRNA, 2'-F at all pyrimidines) [8A-35 (SEQ ID NO 2)], the results for the equilibrium dissociation constant (Kd) in data set [3] and in data set [4] were 1010 nM and 168 nM, respectively.
For the molecule GCGGUAGGAAGAAUUGGAAGCGC (ssRNA, 2'-F at all pyrimidines) [t22 (SEQ ID NO 4)], in the data set with VEGF165 [5], the kon (usually the rate constant with which the complex forms) came to 220000 M⁻¹ s⁻¹. For the same molecule, the off-rate (koff) (usually the rate constant with which the complex falls apart) with VEGF165 [6] came to 0.02 s⁻¹.
As to GGGUUAUCAUUCCAUUUAGUGUUAUGAUAA (ssRNA, 2'-F at all pyrimidines) [8A-30 (SEQ ID NO 3)], the Kd in data set [7] was 261 nM; in data set [8] it was 88 nM.
